Results taken from paper PMC6770577 (2019).
No end group written: not given here. *: point of attachment. FITC = O=C1OC2(c3ccc(O)cc3Oc3cc(O)ccc32)c2ccc(NC(=S)*)cc21

Key:
[1] = biological target: T1, S100A1 (Homo sapiens, UniProt P23297); assay: steady-state fluorescence anisotropy
T1 chain: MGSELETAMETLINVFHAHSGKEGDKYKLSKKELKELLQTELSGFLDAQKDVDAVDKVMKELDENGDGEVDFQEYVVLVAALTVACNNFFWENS

[2] = biological target: CaM (Homo sapiens, UniProt P0DP23); assay: steady-state fluorescence anisotropy

{FITC}-LIGRAYRSNYTRKHFR [TRPM6np]
Kd [1]: 17.8 µM
Kd [2]: 14.9 µM
